# Measurements as given in IntAct's records for PubMed 10918185.
# B1: Tumor necrosis factor receptor superfamily member 6 (Homo sapiens), P25445 (parent)
# chain: MLGIWTLLPLVLTSVARLSSKSVNAQVTDINSKGLELRKTVTTVETQNLEGLHHDGQFCHKPCPPGERKARDCTVNGDEPDCVPCQEGKEYTDKAHFSSKCRRCRLCDEGHGLEVEINCTRTQNTKCRCKPNFFCNSTVCEHCDPCTKCEHGIIKECTLTSNTKCKEEGSRSNLGWLCLLLLPIPLIVWVKRKEVQKTCRKHRKENQGSHESPTLNPETVAINLSDVDLSKYITTIAGVMTLSQVKGFVRKNGVNEAKIDEIKNDNVQDTAEQKVQLLRNWHQLHGKKEAYDTLIKDLKKANLCTLAEKIQTIILKDITSDSENSNFRNEIQSLV
# Variants of: B1
# Details: with ptn13_human PTPN13, Q12923
# Chain of ptn13_human PTPN13, Q12923 (Q12923 whole entry): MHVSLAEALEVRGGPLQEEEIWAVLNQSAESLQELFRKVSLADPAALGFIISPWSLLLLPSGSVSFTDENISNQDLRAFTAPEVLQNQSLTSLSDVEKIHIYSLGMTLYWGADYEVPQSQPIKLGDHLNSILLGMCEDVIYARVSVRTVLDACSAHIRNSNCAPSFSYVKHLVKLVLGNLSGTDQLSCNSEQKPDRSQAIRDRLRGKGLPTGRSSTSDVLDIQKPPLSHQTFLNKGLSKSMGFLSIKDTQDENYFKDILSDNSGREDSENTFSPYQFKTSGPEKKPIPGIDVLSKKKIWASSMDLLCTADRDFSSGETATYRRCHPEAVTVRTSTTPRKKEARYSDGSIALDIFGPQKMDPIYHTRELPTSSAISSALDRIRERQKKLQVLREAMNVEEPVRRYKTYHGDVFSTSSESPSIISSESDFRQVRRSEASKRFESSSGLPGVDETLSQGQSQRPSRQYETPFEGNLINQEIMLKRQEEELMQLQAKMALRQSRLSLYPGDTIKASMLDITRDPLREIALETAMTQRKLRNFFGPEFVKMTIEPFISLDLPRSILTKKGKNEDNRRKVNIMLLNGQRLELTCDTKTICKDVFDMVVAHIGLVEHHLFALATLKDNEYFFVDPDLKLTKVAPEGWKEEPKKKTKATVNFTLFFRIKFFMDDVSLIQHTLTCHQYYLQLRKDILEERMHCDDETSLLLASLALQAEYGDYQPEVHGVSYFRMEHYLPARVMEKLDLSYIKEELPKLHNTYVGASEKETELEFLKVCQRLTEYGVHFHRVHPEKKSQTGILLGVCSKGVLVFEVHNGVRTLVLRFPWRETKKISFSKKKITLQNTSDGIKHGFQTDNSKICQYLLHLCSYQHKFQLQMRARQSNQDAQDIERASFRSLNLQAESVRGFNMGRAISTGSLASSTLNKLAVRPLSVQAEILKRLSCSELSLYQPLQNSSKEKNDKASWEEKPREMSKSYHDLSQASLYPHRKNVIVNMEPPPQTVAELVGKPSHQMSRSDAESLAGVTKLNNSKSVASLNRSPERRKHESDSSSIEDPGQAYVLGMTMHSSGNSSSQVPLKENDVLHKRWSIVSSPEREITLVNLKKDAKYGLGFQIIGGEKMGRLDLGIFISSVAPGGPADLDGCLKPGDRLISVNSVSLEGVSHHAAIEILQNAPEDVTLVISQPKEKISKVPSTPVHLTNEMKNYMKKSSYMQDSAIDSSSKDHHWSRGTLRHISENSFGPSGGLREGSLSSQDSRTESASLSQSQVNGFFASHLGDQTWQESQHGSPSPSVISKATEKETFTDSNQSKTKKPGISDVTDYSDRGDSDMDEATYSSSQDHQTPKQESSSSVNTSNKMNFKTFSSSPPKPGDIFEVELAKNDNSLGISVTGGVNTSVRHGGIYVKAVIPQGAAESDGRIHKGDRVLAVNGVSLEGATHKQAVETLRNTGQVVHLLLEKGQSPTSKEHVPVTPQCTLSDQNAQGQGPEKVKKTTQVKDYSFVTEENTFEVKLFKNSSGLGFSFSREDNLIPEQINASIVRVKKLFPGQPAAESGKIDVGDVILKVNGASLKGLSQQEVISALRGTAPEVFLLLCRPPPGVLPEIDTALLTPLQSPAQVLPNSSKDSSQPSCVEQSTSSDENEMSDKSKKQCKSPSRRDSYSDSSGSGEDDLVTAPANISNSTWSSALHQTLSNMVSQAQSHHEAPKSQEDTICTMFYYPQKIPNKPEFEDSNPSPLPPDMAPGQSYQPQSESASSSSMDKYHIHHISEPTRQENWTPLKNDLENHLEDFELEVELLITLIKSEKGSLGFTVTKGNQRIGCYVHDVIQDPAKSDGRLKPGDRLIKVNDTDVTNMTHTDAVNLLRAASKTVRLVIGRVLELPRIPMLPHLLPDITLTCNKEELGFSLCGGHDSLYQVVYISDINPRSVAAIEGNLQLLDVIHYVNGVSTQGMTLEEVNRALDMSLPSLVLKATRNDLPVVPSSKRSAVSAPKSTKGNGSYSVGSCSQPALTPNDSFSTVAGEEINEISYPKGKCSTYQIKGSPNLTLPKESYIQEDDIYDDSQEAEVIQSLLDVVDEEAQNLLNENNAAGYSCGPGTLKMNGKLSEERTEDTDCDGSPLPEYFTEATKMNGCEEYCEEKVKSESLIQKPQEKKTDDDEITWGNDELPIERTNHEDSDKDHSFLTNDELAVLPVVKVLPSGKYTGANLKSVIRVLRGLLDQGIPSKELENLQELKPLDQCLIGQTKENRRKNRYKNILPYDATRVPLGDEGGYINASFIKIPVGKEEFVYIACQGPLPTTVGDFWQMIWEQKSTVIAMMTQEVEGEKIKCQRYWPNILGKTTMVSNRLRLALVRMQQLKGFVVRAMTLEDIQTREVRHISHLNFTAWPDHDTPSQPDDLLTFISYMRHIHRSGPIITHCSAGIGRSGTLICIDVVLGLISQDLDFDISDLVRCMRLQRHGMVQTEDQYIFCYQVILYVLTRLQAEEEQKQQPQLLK
row,effect of a mutation on the interaction,Variant
1,decreasing interaction,MLGIWTLLPLVLTSVARLSSKSVNAQVTDINSKGLELRKTVTTVETQNLEGLHHDGQFCHKPCPPGERKARDCTVNGDEPDCVPCQEGKEYTDKAHFSSKCRRCRLCDEGHGLEVEINCTRTQNTKCRCKPNFFCNSTVCEHCDPCTKCEHGIIKECTLTSNTKCKEEGSRSNLGWLCLLLLPIPLIVWVKRKEVQKTCRKHRKENQGSHESPTLNPETVAINLSDVDLSKYITTIAGVMTLSQVKGFVRKNGVNEAKIDEIKNDNVQDTAEQKVQLLRNWHQLHGKKEAYDTLIKDLKKANLCTLAEKIQTIILKDITSDSENSNFRNEIQPLV [S333P]
